For this assay, the target named is Growth factor receptor-bound protein 2 (Grb2), HepG2 cells (human (endogenous in HepG2), UniProt P62993 1-217). Kind of assay: co-IP.
Sequence of Growth factor receptor-bound protein 2 (Grb2), HepG2 cells (P62993 whole entry): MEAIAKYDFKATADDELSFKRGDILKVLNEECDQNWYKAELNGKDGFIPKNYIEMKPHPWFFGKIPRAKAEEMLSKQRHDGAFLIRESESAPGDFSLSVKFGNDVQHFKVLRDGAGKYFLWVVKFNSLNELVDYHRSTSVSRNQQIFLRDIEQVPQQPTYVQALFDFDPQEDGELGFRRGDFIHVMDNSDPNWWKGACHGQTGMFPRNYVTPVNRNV

B1: NADPH oxidase NOX4, HepG2 cells (natural protein, human (endogenous in HepG2), UniProt Q9NPH5 1-578, looked up)
chain: MAVSWRSWLANEGVKHLCLFIWLSMNVLLFWKTFLLYNQGPEYHYLHQMLGLGLCLSRASASVLNLNCSLILLPMCRTLLAYLRGSQKVPSRRTRRLLDKSRTFHITCGVTICIFSGVHVAAHLVNALNFSVNYSEDFVELNAARYRDEDPRKLLFTTVPGLTGVCMVVVLFLMITASTYAIRVSNYDIFWYTHNLFFVFYMLLTLHVSGGLLKYQTNLDTHPPGCISLNRTSSQNISLPEYFSEHFHEPFPEGFSKPAEFTQHKFVKICMEEPRFQANFPQTWLWISGPLCLYCAERLYRYIRSNKPVTIISVMSHPSDVMEIRMVKENFKARPGQYITLHCPSVSALENHPFTLTMCPTETKATFGVHLKIVGDWTERFRDLLLPPSSQDSEILPFIQSRNYPKLYIDGPFGSPFEESLNYEVSLCVAGGIGVTPFASILNTLLDDWKPYKLRRLYFIWVCRDIQSFRWFADLLCMLHNKFWQENRPDYVNIQLYLSQTDGIQKIIGEKYHALNSRLFIGRPRWKLLFDEIAKYNRGKTVGVFCCGPNSLSKTLHKLSNQNNSYGTRFEYNKESFS
For the molecule B1, the “fold change of the co-precipitated interaction, T2D condition against control” value is 1.35 fold.

The values above are taken from article PMC8454712 (Biochemical Journal, 2021).
